From the supplement of paper PMC10724198
± gives the standard deviation of the averaged measurements.

Tested on: Saccharomyces cerevisiae
Experiment: protein stability index of tFT-peptide fusion (C-terminal peptide) (PSI (0-1 scale)); higher = more stable (slower turnover)
Details: genetic background: wild type; temperature: 30 C
Experimental: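 Multiplexed protein stability (MPS) profiling in S. cerevisiae. Random 12-aa peptides (tFT-X12 library) are fused to the C-terminus of a sfGFP-mCherry tandem fluorescent timer, after mCherry and a GGGS linker. Cells are FACS-sorted into 8 mCherry/sfGFP bins and deep-sequenced. The protein stability index (PSI) is the read-weighted bin average, scaled from 0 (unstable) to 1 (stable). Only peptides with >10 reads are reported; cells were grown at 30 °C in SC-His with glucose.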
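Also: PSI is a weighted mean of sequencing reads over stability bins, variants kept only with over 10 reads, mCherry proximal and sfGFP distal, peptide attached via GGGS linker.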

SFSSLVLSSCFW
protein stability index: 0.706 ± 0.026

VRVGVGGVSEFE
protein stability index: 0.67062 ± 0.00015

PPYPPPHASPAP
protein stability index: 0.693 ± 0.039

RTSNARLLPRIG
protein stability index: 0.681 ± 0.034

PLVQSSCCRNYY
protein stability index: 0.7 ± 0.04

NMPGALETKMGV
protein stability index: 0.599 ± 0.054

GWRGAAGVPTVD
protein stability index: 0.73 ± 0.031

SVGVGSFVVLGV
protein stability index: 0.6543 ± 0.0024

GRGSGIAMGVWV
protein stability index: 0.801 ± 0.19

LDVFSLASRPDG
protein stability index: 0.5928 ± 0.0053

GRSMWFIEFGLG
protein stability index: 0.7578 ± 0.0057

FPRPLPPLSPLL
protein stability index: 0.7162 ± 0.0037

TYKEHNKTRETG
protein stability index: 0.686 ± 0.076

YFFRLLYRLWSR
protein stability index: 0.676 ± 0.092

DGSPLGSIQQAP
protein stability index: 0.673 ± 0.013

SFSLAPSPPLLP
protein stability index: 0.721 ± 0.042

SATPSSLPLPPS
protein stability index: 0.739 ± 0.029

PLPSPPPPFLSL
protein stability index: 0.71 ± 0.048

NWRCTLGWSWVR
protein stability index: 0.706 ± 0.058

AVYRPFPFRSGI
protein stability index: 0.699 ± 0.015

RGGGRDGQTRGV
protein stability index: 0.6165 ± 0.0045

SPAASPSRPPPI
protein stability index: 0.648 ± 0.025

GGCAGGVGRLAV
protein stability index: 0.692 ± 0.011

PPLPPAPPPPPH
protein stability index: 0.697 ± 0.056

VGGCRLTRSSVW
protein stability index: 0.688 ± 0.011

WGRGEWKRGQEA
protein stability index: 0.743 ± 0.053

PTTPPTILLLPL
protein stability index: 0.658 ± 0.031

LVRFVLNKYRGR
protein stability index: 0.718 ± 0.012

RREKQKTPAKKT
protein stability index: 0.634 ± 0.034

AVRLALAPQVGA
protein stability index: 0.617 ± 0.018

DLPVIGHRLPLF
protein stability index: 0.684 ± 0.012

GCGSVVVGVGGG
protein stability index: 0.652 ± 0.028

SGRGVEVGGEGE
protein stability index: 0.752 ± 0.053

KKNERKEKNNTN
protein stability index: 0.673 ± 0.014

GTLGYALPTPYE
protein stability index: 0.6736 ± 0.0059

SDSAPSPPAFLP
protein stability index: 0.6569 ± 0.0025

YPTLHEPHSPAL
protein stability index: 0.738 ± 0.052

KKKKKKKKTNKE
protein stability index: 0.656 ± 0.11

VGVGDGLIRRSS
protein stability index: 0.7338 ± 0.004

CVGQYVHWDLLV
protein stability index: 0.549 ± 0.011

APPRPHTPLPRP
protein stability index: 0.75 ± 0.07

RYGARAGPPVNL
protein stability index: 0.68 ± 0.054

QKKKKKKVQKKQ
protein stability index: 0.6702 ± 0.0054

LGRGGAASGRAL
protein stability index: 0.67 ± 0.062

GVRCVQGTVTGR
protein stability index: 0.7 ± 0.099

LPPSPLPPLPPP
protein stability index: 0.6942 ± 0.0012

PSGLVSPSCLGC
protein stability index: 0.68 ± 0.022

SALSKYFLSVRL
protein stability index: 0.633 ± 0.012

TVLRPKERQEHN
protein stability index: 0.721 ± 0.038

KKKTIKNNERSK
protein stability index: 0.69 ± 0.071

LPPLPPLAHHPA
protein stability index: 0.699 ± 0.044

FFSSTVFLLFLP
protein stability index: 0.569 ± 0.025

LLPLPSFSPCSL
protein stability index: 0.7013 ± 0.0034

SPLDSPPLSSPP
protein stability index: 0.659 ± 0.028

GLSWTVDDGHGG
protein stability index: 0.683 ± 0.039

VRVSGVSVVRFW
protein stability index: 0.667 ± 0.012

RHLACFWFRPPW
protein stability index: 0.694 ± 0.018

KKKKKKKKNMKR
protein stability index: 0.683 ± 0.024

SGGGGGWQEEAG
protein stability index: 0.662 ± 0.027

LCFRSLFLCSLF
protein stability index: 0.577 ± 0.13

SIWLLSGGQCFL
protein stability index: 0.684 ± 0.027

SINLLFHSFFFL
protein stability index: 0.608 ± 0.047

PKRTHDPAPKTT
protein stability index: 0.70897 ± 0.00058

KGTRKPSTKIIV
protein stability index: 0.667 ± 0.074

GMCWTEGNTAVL
protein stability index: 0.697 ± 0.06

CLQRPVSAGMVT
protein stability index: 0.676 ± 0.027

GGRGAGRGSVGG
protein stability index: 0.679 ± 0.034

MAVDSVIISAVF
protein stability index: 0.592 ± 0.096

LPTPSLPPLPFH
protein stability index: 0.623 ± 0.058

FPLPPHSSPLPP
protein stability index: 0.695 ± 0.037

SSLSPPPPLPPW
protein stability index: 0.706 ± 0.075

SLTEAVHWDRIS
protein stability index: 0.67 ± 0.032

LVSFSDTPMATA
protein stability index: 0.786 ± 0.1

NYMQVSIKNKKE
protein stability index: 0.641 ± 0.028

SGNYRGGLTVFS
protein stability index: 0.711 ± 0.023

LYQRCVCSFREK
protein stability index: 0.639 ± 0.016

TGNSPSRTGNGI
protein stability index: 0.647 ± 0.018

PPSIEAAQPPYF
protein stability index: 0.681 ± 0.015

DRPNIGIKPKRA
protein stability index: 0.613 ± 0.086

VDGSYCGTLASY
protein stability index: 0.6568 ± 0.0033

RTEMASLERKSF
protein stability index: 0.696 ± 0.017

RLPVKQQVLPDK
protein stability index: 0.6783 ± 0.0062

PLLSYSPPAPPP
protein stability index: 0.664 ± 0.024

SARLCPPRGGFR
protein stability index: 0.748 ± 0.018

PSVPRLPGLSLR
protein stability index: 0.629 ± 0.053

SLPPALPLPLSH
protein stability index: 0.64 ± 0.06

SPPSPGLDPVCP
protein stability index: 0.66 ± 0.089

QKREEPQNKSQD
protein stability index: 0.72 ± 0.017

PSPPPSPPSPPS
protein stability index: 0.708 ± 0.02

GEKSSDDYEVKD
protein stability index: 0.6554 ± 0.002

HKEYGTTCYGYR
protein stability index: 0.691 ± 0.049

LILHVGWDSQLG
protein stability index: 0.667 ± 0.085

GVLWCGYGVGGG
protein stability index: 0.762 ± 0.11

PHPPSCPLTPPP
protein stability index: 0.666 ± 0.015

SCFLISIPLGFV
protein stability index: 0.5678 ± 0.0055

KKELKKRNKAKK
protein stability index: 0.66 ± 0.012

KGRQVDQALVRG
protein stability index: 0.634 ± 0.019

LTLPSDSSALPA
protein stability index: 0.748 ± 0.03
